Assay results: US20210061904A1 (GMAX BIOPHARM, published 2021)
Values belong to the binder of their own block, whether it stands above or below them.

Legend:
[1] = molecular target: T1, human gastric inhibitory polypeptide receptor (hGIPR) (human, UniProt P48546 22-466); experiment: FACS on CHO-DHFR-hGIPR cells, 1 µM antibody
T1 construct: also called human GIPR; CHO-DHFR-hGIPR
T1 sequence: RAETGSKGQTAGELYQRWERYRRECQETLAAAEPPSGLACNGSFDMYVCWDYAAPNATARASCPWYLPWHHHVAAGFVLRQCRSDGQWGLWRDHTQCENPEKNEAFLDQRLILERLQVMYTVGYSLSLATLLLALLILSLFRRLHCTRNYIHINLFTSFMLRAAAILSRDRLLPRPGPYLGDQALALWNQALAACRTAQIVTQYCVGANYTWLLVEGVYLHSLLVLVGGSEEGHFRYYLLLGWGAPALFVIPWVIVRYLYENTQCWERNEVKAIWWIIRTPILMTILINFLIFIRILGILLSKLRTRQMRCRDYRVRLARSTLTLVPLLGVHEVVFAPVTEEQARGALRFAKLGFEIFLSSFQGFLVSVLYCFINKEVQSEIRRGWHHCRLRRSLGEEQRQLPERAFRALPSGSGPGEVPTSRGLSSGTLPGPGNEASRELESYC
Procedure: PBS containing 10 mM EDTA was used to detach the CHO-DHFR-hGIPR cells and 10⁵ cells/tube was distributed into 1.5 mL EP tubes, and the supernatant was removed after centrifugation. The negative control sample was resuspended with a loading buffer (PBS, 2% FBS). For the positive control, 200 μL GIPR antibody solution of specific concentration was added to the cells and incubated at room temperature; after incubation, the cells were then centrifuged at 1500 rpm to remove the supernatant, washed with a FACS loading buffer and centrifuged again. The cells were resuspended with addition (200 μL/well) of a FITC labeled goat anti-mouse fluorescent antibody or PE labeled goat anti-human fluorescent antibody at 1:50 dilution and incubated at room temperature for 30 min in the dark. The supernatant was removed after centrifugation, and cells were washed with FACS loading buffer, centrifuged again and resuspended with the loading buffer for FACS analysis. The recombinant anti-hGIPR functional antibody specifically binds to GIPR-expressing CHO-DHFR-GIPR cells.

[2] = molecular target: human GLP-1 receptor (hGLP-1R) (human) (UniProt P43220); experiment: cell-based or functional assay
[3] = molecular target: T2, human gastric inhibitory polypeptide receptor (hGIPR) (human) (UniProt P48546); experiment: cell-based or functional assay
T2 sequence: T1 sequence

[4] = molecular target: T1, human gastric inhibitory polypeptide …; experiment: cell-based or functional assay

Chain of human GLP-1 receptor (hGLP-1R) (human) (P43220 24-463): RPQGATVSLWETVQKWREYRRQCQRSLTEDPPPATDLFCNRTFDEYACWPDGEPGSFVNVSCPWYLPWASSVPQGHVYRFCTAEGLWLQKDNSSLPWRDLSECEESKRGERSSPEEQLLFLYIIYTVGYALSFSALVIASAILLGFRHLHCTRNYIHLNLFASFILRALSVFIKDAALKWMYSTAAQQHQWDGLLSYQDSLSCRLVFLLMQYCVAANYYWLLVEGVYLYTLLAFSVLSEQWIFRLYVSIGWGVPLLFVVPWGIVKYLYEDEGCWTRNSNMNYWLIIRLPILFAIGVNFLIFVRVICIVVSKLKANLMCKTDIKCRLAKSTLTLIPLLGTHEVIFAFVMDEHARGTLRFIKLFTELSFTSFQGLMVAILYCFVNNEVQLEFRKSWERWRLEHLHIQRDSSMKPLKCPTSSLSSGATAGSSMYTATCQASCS

binding result [1]: binds
B1: hGIPR antibody L10H8 (antibody, V domains shown)
VH: QVQLQQSGAEVKKPGSSVKVSCKASGGTFSSYAISWVRQAPGQGLEWMGGIIPTFGTANYAQKFQGRVTITADESTSTAYMELSSLRSEDTAVYYCAQGPIVGAPTDYWGKGTLVTVSS
VL: SYVLTQPPSASGTPGQRVAISCSGSNSNIGSNTVHWYQQLPGAAPKLLIYSNNQRPSGVPDRFSGSNSGTSASLAISRLQSEDEADYYCAAWDDSLNGVVFGGGTKVTVL
notes: Recombinantly expressed complete antibody; Only the variable domains are tied to L10H8; also called Ll0H8

EC50, CRE-Luciferase reporter gene assay on CHO-DHFR- cells co-expressing hGLP1R [2]: 0.04 nM | IC50, direct cAMP assay, antagonism of GIP (50 pM) activation of hGIPR on CHO-DHFR cells [3]: 14.9 nM
B2: GIPR antibody/GLP-1 fusion protein GLP-1-Linker-L7H6 (protein, part only; not given: constant regions, not shown: a dimerising Fc or GST)
light, part: HGEGTFTSDVSSYLEGQAAKEFIAWLVKGGGGGSGGGGSGGGGSDIVLTQSPASLAVSPGQRATITCRASQSVNTAVYSYIHWYQQKPGQPPKLLIKYASNLESGVPARFSGSGSGTDFTLTINPVEANDAANYYCQHSFDFPYTFGGGTKVEIKR
heavy, part: QVQLQESGPGLVKPSQTLSLTCTVSGYSITSDYAWNWIRQPPGKGVEWMGYISYRGIATYKPSLKSRITISRDTSKNQFSLKLSSVTAADTAVYYCVRGEYGPGNFDFWGQGTTVTVSS

IC50, direct cAMP assay, antagonism of GIP (50 pM) activation of hGIPR on CHO-DHFR cells [4]: 7.6 nM
B3: hGIPR antibody L7H6 (antibody, V domains shown)
VH: B2 heavy, part
VL: DIVLTQSPASLAVSPGQRATITCRASQSVNTAVYSYIHWYQQKPGQPPKLLIKYASNLESGVPARFSGSGSGTDFTLTINPVEANDAANYYCQHSFDFPYTFGGGTKVEIKR
